The record followed here is patent publication US20220389085A1 (BIONOXX, published 2022).

Where a chain is given by its changes, count along the chain named.

Sequences and labels used below:
T1: protein A56 of the oncolytic virus OTS-412 (vaccinia virus (OTS-412), UniProt P08714 17-315)
T1 construct: also called OTS-412-A56; protein A56 variant
T1 chain: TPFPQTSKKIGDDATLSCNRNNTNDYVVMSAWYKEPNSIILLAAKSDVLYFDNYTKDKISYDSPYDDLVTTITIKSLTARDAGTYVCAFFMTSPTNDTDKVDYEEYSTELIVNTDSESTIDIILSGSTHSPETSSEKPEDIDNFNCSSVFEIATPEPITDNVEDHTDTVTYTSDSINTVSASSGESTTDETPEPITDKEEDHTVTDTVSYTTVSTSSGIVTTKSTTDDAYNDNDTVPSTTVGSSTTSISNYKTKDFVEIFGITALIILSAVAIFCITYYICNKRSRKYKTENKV

B1: LakePharma variant3 (antibody)
VH: QVQLQQSGPELVKPGASMKLSCKASGYSFTGYTMNWVKQSHGKNLEWIGLINPYNGGTSYNQKFKGKATLTVDKSSSTAYMELLSLTSEDSAVYYCARSHYRYDYWYFDVWGAGTTVTVSSAKTTPPSVYPLAPGSAAQTNSMVTLGCLVKGYFPEPVTVTWNSGSLSSGVHTFPAVLQSDLYTLSSSVTVPSSTWPSETVTCNVAHPASSTKVDKKIVPRDCGCKPCICTVPEVSSVFIFPPKPKDVLTITLTPKVTCVVVDISKDDPEVQFSWFVDDVEVHTAQTQPREEQFNSTFRSVSELPIMHQDWLNGKEFKCRVNSAAFPAPIEKTISKTKGRPKAPQVYTIPPPKEQMAKDKVSLTCMITDFFPEDITVEWQWNGQPAENYKNTQPIMDTDGSYFVYSKLNVQKSNWEAGNTFTCSVLHEGLHNHHTEKSLSHSPGK
VL: DVVMTQTPLSLPVSLGDQASISCRSSQSLVHSNGNTYLHWYLQKPGQSPKLLIYKVSNRFSGVPDRFSGSGSGTDFTLKISRVEAEDLGVYFCSQSTHVPPFTFGSGTKLEIKRADAAPTVSIFPPSSEQLTSGGASVVCFLNNFYPKDINVKWKIDGSERQNGVLNSWTDQDSKDSTYSMSSTLTLTKDEYERHNSYTCEATHKTSTSPIVKSFNRNEC
notes: also called LP variant3; LPvariant03
B2: LakePharma variant4 (antibody)
VH: B1 VH with Q1E
VL: B1 VL
notes: also called LP variant4; LPvariant04
B3: A56-02A02 (Ab13) (antibody, V domains shown)
VH: QMQLVESGAEVKKTGSSVKVSCKASGDTLTYRFLHWVRQAPGQAPEWMGWITPFNDNTNYAQKFQDRVTITRDRSMSTAYMELSSLRSEDTAVYYCATGGGNNYYGMEVWGQGTPITVSS
VL: SYELTQPLSLSVSPGQTASITCSGDKLGDKFTSWYQQQPGQSPVLVIYQDAKRPSGIPERFSGSNSGSTATLTISGTQSMDEADYYCQAWDSSSVVFGGGTKLTVL
B4: A56-01A04 (Ab03) (antibody, V domains shown)
VH: QVQLVESGAEVKKPGSSVKVSCKASGGTFSYRYLHWVRQASGQALEWMGWITPFNGYTNYAQKFQDRVTITRDRSMSTAYMELSSLRSEDTAVYYCVTGLGKTNLDSWGQGTLVTVSS
VL: DIVMTQTPLSSPVTLGQPASISCRSSQSLVHSNGNTYLSWLQQRPGQPPRLLIYQISKRFSGVPDRFSGSGAGTDFTLKISRVEAEDVGVYYCMQLTQFPLTFGGGTKVEIK
B5: A56-35G07 (Ab51) (antibody, V domains shown)
VH: QMQLVQSGAEVRKPGSSVKVSCKASGDTFSSYAVSWVRQAPGLGLEWMGRTIPRLGATSYAQNFQGRVSITADKSTNTVYMELSGLRSEDTAVYYCARYIPLVRGVRQPRDDFEIWGPGTMITVSS
VL: DIQMTQSPGTLSLSPGERATLSCRASQSVSSSYLAWYQQKPGQAPRLLIYGASSRATGIPDRFSGSGSGTDFTLTISSLEPEDFAVYYCQHRKSWPPGATFGQGTRLEIK
B6: A56-01A02 (Ab01) (antibody, V domains shown)
VH: QMQLVQSGAEVKKPGSSVKVSCKASGGTFSSYAISWVRQAPGQGLEWMGGIIPIFGTANYAQKFQGRVTMTRDTSTSTVYMELSSLKSEDTAVYYCARFVFGSGTYLDSWGQGTLVTVSS
VL: not shown
B7: A56-01F12 (Ab08) (antibody, V domains shown)
VH: QVQLVESGGEVKKPGSSVKVSCKASGGSFSTYAISWVRQAPGQGLEWMGRIIPISDIRNYAQKFQGRVTLTADRATSTAYMELSSLRSEDTAVYYCAKGGRLLSTHFDYWGQGTLVTVSS
VL: QLVLTQPPSVSAAPGQKVTISCSGSSSNIGNNYVSWYQQLPGTAPKLLIYDDDKRPSGIPDRFSGSKSGTSATLGITGLQTGDEADYYCGTWHSGLSAGVVFGGGTKLTVL
B8: A56-44G01 (Ab55) (antibody, V domains shown)
VH: QVQLVESGGGVVQPGRSLRLSCAASGFTFSSYAMHWVRQAPGKGLEWVAVISYDGSNKYYADSVKGRFTISRDNSKNTLYLQMNSLRAEDTAVYYCAKDLWGRVGALVGALDLWGQGTMITVSS
VL: SYELTQGPSLSVSPGQTANIICSGDNLRTKYVSWYQQKPGQSPILVIYQDTRRPSGIPARFSGSNSGNTATLTISGTQAMDEADYYCQAWDSGNYVFGTGTKVTVL
B9: A56-02B01 (Ab14) (antibody, V domains shown)
VH: QVQLVQSGGGVVQPGRSLRLSCAASGFTFSNYGMHWVRQAPGKGLEWMAFIWFDGSNKFYADSVKGRFTVSRDNSKNTLFLQMNSLRAEDTAVYYCAKAAHLWGAFDIWGQGTMVTVSS
VL: DIQMTQSPDTLSLSPGERATLSCRASQSVSSYLAWYQQKPGQAPRLLIYGASNRATGIPARFSGSGSGTDFALTIGRLEPEDFAVYYCQQYATSPLSFGGGTKVEIK
B10: A56-02C07 (Ab19) (antibody, V domains shown)
VH: QVQLVESGAEVRRPGSSVKVSCKTSGVTFSGYVLSWVRQAPGHGLEWMGRIIPLIDVENYAREFQGRMKITADKSTNTVYMELNNLRSEDTAVYYCAKSVVRGLDYYYYGFDVWGQGTTVTVSS
VL: SYELTQPPSLSVAPGKTARITCGGNNIGSKSVHWYQQKPGQAPRLVTYYDGNRPSGIPERFSGSNSGNTATLIISRVEAGDEADYYCQVWDSSSDQGVFGTGTKVTVL
B11: A56-02C06 (Ab18) (antibody, V domains shown)
VH: QVQLVESGGGLVQPGKSLRLSCAASGFTFSTYGMTWVRQAPGKGLEWVSGISGGGSSTNYADSVKGRFIISRDNSNNTLYLQMNSLRAEDTAVYYCARWGVMLSFDYWGQGTPVTVSS
VL: DIQMTQSPSTLPASVGDRVTITCRASYSVSPWLAWYQQKPGKAPKLLIYKASTLESGVPSRFSGSGSGTEFTLTISSLQPDDFATYYCQQFNSYMMYTFGQGTKLEIK

In one test the target is T1, protein A56 of the oncolytic virus …. The test can be described thus: flow cytometry, PC3 cells treated with OTS-412.
On to B1, for which the “binding signal (flow cytometry, %)” value was at least 90%.
Turning to B2, the “binding signal (flow cytometry, %)” value was at least 90%.

The next test has the same target. Put plainly: flow cytometry, A549 cells treated with OTS-412. For orientation: In flow cytometry, cells or beads pass a laser one at a time.
Regarding B3, the “binding signal (flow cytometry, %)” value was at least 90%.
For B4, the “binding signal (flow cytometry, %)” value is at least 90%.
On the same count and under the same terms, under B5 stands at least 90%; under B6, at least 90%.
The same measure, in the same setting: the value for B7 was at least 90%; that for B8 was at least 90%; that for B1 was at least 93%.
Same read-out and setting: the value for B2 was at least 93%; that for B9 was at least 90%.
For B10, the “binding signal (flow cytometry, %)” value was at least 90%.

For the next test the target is unchanged. Put plainly: flow cytometry, MCF7 cells treated with OTS-412.
For the molecule B3, the “binding signal (flow cytometry, %)” value was at least 80%.
On the same count and under the same terms, under B4 stands at least 80%; under B5, at least 80%.
On the same count and under the same terms, the value for B6 was at least 80%; that for B7 was at least 80%; that for B8 was at least 80%.
On to B9, for which the “binding signal (flow cytometry, %)” value was at least 80%.
The same measure, in the same setting: under B11 stands at least 80%; under B10, at least 80%.

Another test addresses T2, protein A56 of the oncolytic virus WOTS-418 (vaccinia virus (WOTS-418, Western …, UniProt Q01218 17-314)).
T2 construct: also called WOTS-418-A56; protein A56 variant
The test can be described thus: flow cytometry, PC3 cells treated with WOTS-418.
For B1, the “binding signal (flow cytometry, %)” value is at least 90%.
Still for that read-out and setting: the value for B2 was at least 90%.

A further test has as its target T2, protein A56 of the oncolytic virus …. The test can be described thus: flow cytometry, A549 cells treated with WOTS-418.
As for B3, the “binding signal (flow cytometry, %)” value was at least 90%.
The same measure, in the same setting: under B4 stands at least 90%; under B5, at least 90%.
With B6, the “binding signal (flow cytometry, %)” value was at least 90%.
The same measure, in the same setting: under B7 stands at least 90%; under B8, at least 90%; under B1, at least 93%.
Consider B2, for which the “binding signal (flow cytometry, %)” value was at least 93%.
The same measure, in the same setting: the value for B9 was at least 90%; that for B10 was at least 90%.

For a further test the target is unchanged. Put plainly: flow cytometry, MCF7 cells treated with WOTS-418.
Regarding B3, the “binding signal (flow cytometry, %)” value is at least 80%.
As for B4, the “binding signal (flow cytometry, %)” value was at least 80%.
Still for that read-out and setting: under B5 stands at least 80%; under B6, at least 80%.
Same read-out and setting: the value for B7 was at least 80%; that for B8 was at least 80%.
Same read-out and setting: the value for B9 was at least 80%.
For B11, the “binding signal (flow cytometry, %)” value is at least 80%.
The same measure, in the same setting: the value for B10 was at least 80%.

A further test deals with T1, protein A56 of the oncolytic virus …. Put plainly: flow cytometry, PC3 cells treated with OTS-412 (overlay, FIG. 74).
On to B3, for which the “binding signal (flow cytometry, %)” value is at least 60%.
Regarding B4, the “binding signal (flow cytometry, %)” value is at least 60%.
The same measure, in the same setting: under B5 stands at least 60%; under B6, at least 60%; under B7, at least 60%.
For the molecule B8, the “binding signal (flow cytometry, %)” value was at least 60%.
Same read-out and setting: the value for B9 was at least 60%; that for B11 was at least 60%; that for B10 was at least 60%.

A further test has as its target T2, protein A56 of the oncolytic virus …. Put plainly: flow cytometry, PC3 cells treated with WOTS-418 (overlay, FIG. 75).
In the case of B3, the “binding signal (flow cytometry, %)” value is at least 60%.
Still for that read-out and setting: under B4 stands at least 60%; under B5, at least 60%; under B6, at least 60%.
On the same count and under the same terms, under B7 stands at least 60%; under B8, at least 60%.
Still for that read-out and setting: the value for B9 was at least 60%.
For B11, the “binding signal (flow cytometry, %)” value was at least 60%.
The same measure, in the same setting: the value for B10 was at least 60%.
